Measured values from US20130316910A1 (UNIVERSITY OF TOKYO, published 2013).

Target: T1, Bcl-2 protein having His tag on the C terminal side (UniProt P10415 1-211, limits assumed)
T1 construct: Immobilised through its His tag on a Ni-loaded SPR substrate; not shown: C-terminal His tag
Assay: SPR, His-tagged Bcl-2 immobilised on Ni substrate, peptide in solution
Protocol: Next, a crosslinked peptide having the amino acid sequence as shown in the above table was synthesized by using a Fmoc solid-phase method and its binding ability was evaluated by calculating a dissociation constant (KD) in accordance with an evaluation method using SPR (Surface Plasmon Resonance).
Described specifically, first, a solution containing NiCl₂ was applied on a substrate to which Ni could be bound and then Bcl-2 protein having His tag on the C terminal side thereof was applied to immobilize the protein on the substrate. Then, a solution containing a solid-phase synthesized peptide was added successively while appropriately changing the concentration. During addition, a change in refractive index depending on the weight on the substrate was read and bond strength was evaluated based on the binding rate and dissociation rate of the peptide calculated.

T1 sequence (P10415 1-211 limits assumed): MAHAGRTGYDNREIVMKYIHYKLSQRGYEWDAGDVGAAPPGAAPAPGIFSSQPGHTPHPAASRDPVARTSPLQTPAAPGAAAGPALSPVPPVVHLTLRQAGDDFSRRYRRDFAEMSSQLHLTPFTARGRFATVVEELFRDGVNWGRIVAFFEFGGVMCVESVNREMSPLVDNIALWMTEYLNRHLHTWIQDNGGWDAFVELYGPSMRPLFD

Binder: Ac-FFNRHNNAYYTAGYAALGRLYRLL-NH2 [A-4A]
- Kd: ~14 nM

Binder: Ac-FIIARFSALADSYDASRHIF-NH2 [A-5A]
- Kd: 0.58 nM

B1: A-1A (peptide)
peptide: Ac-FPHATIAARADSYDSYVRLAATFL-NH2
notes: by the library design Ala stands where the special amino acid and Cys would be
- Kd: 15 nM

Binder: Ac-FPHATIAARADSYDSYVRLVATFR-NH2 [A-2A]
- Kd: 3.6 nM
